Results as given in the supplement of paper PMC9170038.

Key:
MS2 coat protein [1] = experiment: apparent KD of MS2 coat protein, switch ON state; designed switch direction (-1 OFF switch, 1 ON switch): -1; higher = weaker reporter binding; conditions: FMN input: 0 or 200 uM; Eterna round: R93 (includes R88 designs)
In short: (§1)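 The buffer was 100 mM Tris-HCl pH 7.5 with 80 mM KCl and 4 mM MgCl2, used without or with constant ligand. In it, RNA switches transcribed on-chip from Illumina sequencing clusters were titrated with SNAP-549-labelled MS2 coat protein in twofold steps from 0.7 or 1.5 nM to 3 µM. Apparent KD for each design is the median of its normalised cluster binding-curve fits.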

MS2 coat protein [2] = experiment: apparent KD of MS2 coat protein, switch OFF state (with FMN for OFF switches, without FMN for ON switches); designed switch direction (-1 OFF switch, 1 ON switch): -1; higher = weaker reporter binding; conditions: FMN input: 0 or 200 uM; Eterna round: R93 (includes R88 designs)
In short: as §1

Row | Sequence | apparent KD of MS2 coat protein (MS2 coat protein [1]) | apparent KD of MS2 coat protein (MS2 coat protein [2])
1 | AAAAAGUGAGGAUAUACAUGAGGAUCACCCAUGUGUAUAAAAAAUUACACAAAAGAAAGUAGAAGGCACUAAAA [Ex 3 Summer] | 20.3 nM | 32 nM
2 | AACAGUACAGGAUAUACAUGAGGAUCACCCAUGUGAGAAUUAAGUGGCGAACCACAAAGUAGAAGGGUACUGAA [Mat - Exclusion 3 - JL mod - D7] | 45.3 nM | 181 nM
3 | AAGAAGUGAGGAUAUACAUGAGGAUCACCCAUGUAAAAGAAAGAAAGGGAAAAGAAAAGUAGAAGGCACAAGAA [Usermaatre-setpenre-meryamun Ramesses VII] | 36.5 nM | 67.7 nM
4 | GAAAACUGAGGAUAUACUUUGGGAAAAGAAAAGAUGAUGUUACAUGAGGAUCACCCAUGUAGAAGGCAGAAAAA [Default title] | 26.4 nM | 39.4 nM
5 | AAAAAACAUGAGGAUCACCCAUGUAAGGAUAUGCUGAAAAACACGGAAAAACGUGACAGCAGAAGGUACAAAAG [Mat - Exclusion 1 - Eli mod - D93] | 11.8 nM | 84 nM
6 | CUCAUGUAAGGAUAUAUAUGAAAUGAAGUGAAAGAAAAGAAAUAGAAGGUACAUGAGGAUCACCCAUGUUAGAA [EteRNA is fun!] | 59.2 nM | 38.7 nM
7 | AGUUGGCGAGGAUAUACAUGAGGAUCACCCAUGUGAGAGUAAAGAGUGAGAAAGAGAAGUAGAAGGCGCUGACA [Ruby 56] | 81.1 nM | 180 nM
8 | AAAAAGUGAGGAUAUACGUUAAAAAAAAAAAAAAAAAAGCAGUAGAAGGCACAUGAGGAUCACCCAUGUAAAAA [Ex4 Malc#2] | 41.3 nM | 26 nM
9 | AUAAACAGAGGAUAUACGCAAAUAAAAGAAAAUAAAGAAACACAUGAGGAUCACCCAUGUAGAAGGCUGGAAAA | 21.1 nM | 16.7 nM
10 | AGCUAGUCAGGAUAUACGAACACGUCAAAAGACGUGAAGGGACAUGAGGAUCACCCAUGUAGAAGGGACUAGCA [Mat - Exclusion 2 - JL mod - D24] | 29.8 nM | 114 nM
11 | AGAAUACAUGAGGAUCACCCAUGUGAGGAUAUCCAAAGAAAAAGAAAAGAAAAGAAAAGGAGAAGGCACAAAAG [EX 1 May 13] | 78.7 nM | 67.3 nM
12 | AACAAGUAAGGAUAUGCUGCUCGUCACAAAAGUGAUGAGUAGCAGAAGGUACAUGAGGAUCACCCAUGUAAAGA [JL eternac mod 16] | 28 nM | 21.1 nM
13 | CUUAUGUAAGGAUAUCAGUAGUAAAAAAAUAAAAUUACUACUGAGAAGGUACAUGAGGAUCACCCAUGUCCGGG [EX4 375: Super Stable 75] | 74.3 nM | 24.7 nM
14 | ACCUAGUCAGGAUAUACAAACAUGUCAAAAGACGUGAAAAAACAUGAGGAUCACCCAUGUAGAAGGGACUAGGA [Mat - Exclusion 2 - JL mod - D22] | 20.5 nM | 19.7 nM
15 | AUAAAACAUGAGGAUCACCCAUGUGAGGAUAUCUAAAAAGAAAGAAAAAAAAAAAAAAAGAGAAGGCACAAUAA [Amethyst 45] | 27.7 nM | 31.8 nM
16 | AAGAAACGAGGAUAUACAAGAAAGAAAGAAAAGAAAAGAAAACAUGAGGAUCACCCAUGUAGAAGGCGUUAGAA [EteRNA is fun!] | 22 nM | 13.8 nM
17 | AUUAAACAUGAGGAUCACCCAUGUGAGGAUAUGCAAAAAAAAUUAUAUUAAAAAAAAAGCAGAAGGCACAUAUA [coft] | 36.3 nM | 62.3 nM
18 | AAAGGACGAGGAUAUACAUGAGGAUCACCCAUGUAAAAAACAUAAUAAAAGAACUUAUGUAGAAGGCGUCCAAA [Meechl Ex3 2] | 53.8 nM | 318 nM
19 | AACAGUACAGGAUAUACAUGAGGAUCACCCAUGUGAAAAUUAAGUGGAGAACCACAAAGUAGAAGGGUACUGAA [Mat - Exclusion 3 - Eli mod - D57] | 27.6 nM | 179 nM
20 | AGGAAACAUGAGGAUCACCCAUGUGAGGAUAUACAAAAGAAAAGAAAAGAAAGAAGAAGUAGAAGGCACAAGAA [Thesh] | 26.2 nM | 29.5 nM
21 | AAAACGGCAGGAUAUACGAUUUGGAACUAGACCGAGGAACCACAUGAGGAUCACCCAUGUAGAAGGGCCAAAAA [Ex2 Malc#16] | 17.2 nM | 19.7 nM
22 | AAUAAACAUGAGGAUCACCCAUGUAAGGAUAUCGAAAAAAAAAUAAACAAAAAAAAAACGAGAAGGUACAAAAA [Exclusion 1 design 2] | 24.1 nM | 27 nM
